Consider three molecules from paper PMC10465699, “Interaction patterns of methoprene-tolerant and germ cell-expressed Drosophila JH receptors suggest significant differences in their functioning” (Frontiers in Molecular Biosciences, 2023).

As usually defined, the Kd is the free concentration of one partner at which half of the binding sites on the other are occupied at equilibrium, for simple one-to-one binding. The stoichiometry N is the number of molecules, sites or subunits per partner or assembly.

Sequences and labels used below:
B1: Fushi tarazu factor-1 ligand-binding domain (Ftz-F1 LBD, 786-1027 aa) (domain or fragment, D. melanogaster, UniProt P33244 786-1027, looked up)
chain: ALIEPLRVSPMIREFVQSIDDREWQTQLFALLQKQTYNQVEVDLFELMCKVLDQNLFSQVDWARNTVFFKDLKVDDQMKLLQHSWSDMLVLDHLHHRIHNGLPDETQLNNGQVFNLMSLGLLGVPQLGDYFNELQNKLQDLKFDMGDYVCMKFLILLNPSVRGIVNRKTVSEGHDNVQAALLDYTLTCYPSVNDKFRGLVNILPEIHAMAVRGEDHLYTKHCAGSAPTQTLLMEMLHAKRKG
notes: 15N- or 13C,15N-labelled where it was the observed protein in NMR, unlabelled otherwise; also called LBD Ftz-F1; source: E. coli BL21(DE3), purified (Ni-NTA, thrombin digestion, SEC); not shown: His6, N-terminal, cleaved

What all share (details): both partners purified
For assay [1], the target named is T1, Germ cell-expressed C-terminus (GceC, 661-959 aa) (D. melanogaster, UniProt Q9VXW7 661-959).
T1 construct: Germ cell-expressed (Gce) protein, D. melanogaster, UniProt Q9VXW7, residues 661-959 (C-terminal fragment); No step that removes the His tag is described; also called Gce C-terminus
T1 sequence (looked up): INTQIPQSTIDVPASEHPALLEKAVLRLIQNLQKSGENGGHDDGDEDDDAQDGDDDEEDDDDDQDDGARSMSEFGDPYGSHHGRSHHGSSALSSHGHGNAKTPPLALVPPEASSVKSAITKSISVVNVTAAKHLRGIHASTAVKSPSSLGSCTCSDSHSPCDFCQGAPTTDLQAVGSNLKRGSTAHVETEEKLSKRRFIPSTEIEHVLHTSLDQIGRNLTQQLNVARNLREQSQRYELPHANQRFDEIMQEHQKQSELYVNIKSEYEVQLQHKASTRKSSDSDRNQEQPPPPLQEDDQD
The assay can be described thus: NMR titration; 15N-HSQC of 15N Ftz-F1 LBD without and with an equimolar quantity of unlabelled MetC or GceC; 20 mM sodium phosphate pH 6.8, 50 mM NaCl, 1 mM TCEP, 0.5 mM EDTA; 29 C.

Assay [2] deals with B1. The assay can be described thus: ITC; 1.06 mM Met^PEP titrated into 0.035 mM Ftz-F1 LBD; 25 C; 20 mM HEPES pH 6.8, 150 mM NaCl, 1 mM TCEP; duplicate, global fit to A + B = AB. A general note: Isothermal titration calorimetry measures the heat released or taken up as one component is titrated into another.
Assay [3] addresses B1. The assay can be described thus: NMR titration; 15N-HSQC of 150 uM 15N-MetC with unlabelled Ftz-F1 LBD at 0, 40, 82, 122, 199, 301 and 500 uM (cross-mixing); 20 mM Bis-Tris pH 6.5, 150 mM NaCl, 5 mM bME; 18 C.

B1: the binding result in assay [1] is listed as “binds”.

B2: Met^PEP, 19-residue peptide of the novel NR-box of MetC (peptide)
peptide: LERIVLYLIENLQKSVDSA
notes: 19-residue peptide representing the novel NR-box in the C-terminus of Met, D. melanogaster, UniProt Q9VYW2; also called MetC^PEP; source: synthetic peptide (PSL GmbH, Heidelberg)
As to B2, in assay [2], the Kd amounted to 9.9 µM, the dH was -1.1 kcal/mol and the “stoichiometry N” value was 1.

B3: Methoprene-tolerant C-terminus (MetC, 509-716 aa) (domain or fragment, D. melanogaster, UniProt Q9VYW2 509-716, looked up)
chain: AGRQKVQEMKEKFSTIIKAEMPTQSSSPDLPASQAPQQLERIVLYLIENLQKSVDSAETVGGQGMESLMDDGYSSPANTLTLEELAPSPTPALALVPPAPSSVKSSISKSVSVVNVTAARKFQQEHQKQRERDREQLKERTNSTQGVIRQLSSCLSEAETASCILSPASSLSASEAPDTPDPHSNTSPPPSLHTRPSVLHRTLTSTLR
notes: Methoprene-tolerant (Met) protein, D. melanogaster, UniProt Q9VYW2, residues 509-716 (C-terminal fragment); 15N- or 13C,15N-labelled where it was the observed protein in NMR, unlabelled where it was added to 15N Ftz-F1 LBD; also called Met C-terminus; source: E. coli BL21(DE3), purified (Ni-NTA, on-column SUMO hydrolase digestion, SEC); not shown: His6, N-terminal, cleaved; SUMO, N-terminal, …
Turning to B3, the binding result in assay [3] is on record as “binds”.
